Measured values taken from patent US20200277335A1 (LARRK BIO, published 2020).

What was measured:
[1] = biological target: chemokine receptor CCR8 (UniProt P51685); test: cell-based or functional assay
[2] = biological target: chemokine receptor CCR8 (UniProt P51685 1-355, limits assumed); test: cell-based or functional assay
Sequence of chemokine receptor CCR8 (UniProt P51685 1-355, limits assumed) (P51685 whole entry): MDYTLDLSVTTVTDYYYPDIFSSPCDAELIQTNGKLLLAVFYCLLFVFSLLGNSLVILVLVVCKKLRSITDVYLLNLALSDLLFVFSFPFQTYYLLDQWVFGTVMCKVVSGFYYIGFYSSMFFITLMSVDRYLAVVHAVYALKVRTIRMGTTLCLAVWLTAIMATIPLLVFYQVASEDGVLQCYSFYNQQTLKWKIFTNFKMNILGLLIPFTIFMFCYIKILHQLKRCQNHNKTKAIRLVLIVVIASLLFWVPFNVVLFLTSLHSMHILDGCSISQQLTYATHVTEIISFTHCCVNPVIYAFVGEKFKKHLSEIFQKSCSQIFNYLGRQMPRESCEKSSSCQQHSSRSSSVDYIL

Sequence of chemokine receptor CCR8 (UniProt P51685) (P51685 whole entry): as above

MC148 fusion protein MC148p-TAT-6xHis gave an inhibition of 1-309 induced chemotaxis (IC50) [1] of 200 nM.

“recombinant MC148 protein (from UniProt Q98314 25-104) (ligand)” gave an inhibition of 1-309 induced chemotaxis of cells expressing CCR8 (IC50) [1] of 2 nM.

With “synthetic MC148 protein (from UniProt Q98314 1-104) (ligand)” the inhibition of 1-309 induced chemotaxis (IC50) [1] was > 15000 nM.

B1: peptide fragment VL-10 (peptide)
peptide: VSLARRKCCL
B1 was tested, and the “inhibition of 1-309 induced chemotaxis (IC50)” value [2] was > 15000 nM.
